{
  "source": "the DeepSol protein solubility set",
  "experiment": "soluble on expression in E. coli; label from the status in PepcDB or PDB records",
  "data": [
    {"sequence": "MGSDKIHHHHHHMVAQLETPSANSSLSLPYPIEGLVQVFTSSHRNFFTSVMGQALRIAGQGTPVLIVQFLKGGIKQGQDRPIQLGQNLDWIRCDLPRCIDTPHLDESENQALQKLWLHTQQVVDEDKYSLVVLDELSLAIHFGLIPESDVLAFLAKRSPHVDIIFTGTEMPQSILDVADQITEIRRSHCP", "values": [
      {"measurement": "soluble on expression in E. coli", "result": "not soluble"}
    ]},
    {"sequence": "MSLGTILHSELEKFYDPNLIVGNETADDAAVYDLGNGTAIISTTDFFMPIVDDPFDFGRIAATNAISDIFAMGGKPIMGIAILGFPTNVLPAEVAQKIVDGGRFACHQAGIALAGGHSIDSPEPIFGLAVTGVIDTEKVKRNASAKSGCKLYMTKPLGIGILTTAEKKGKLKPEHQGLATAAMCQMNSIGSQFSQVDGVTAMTDVTGFGLLGHLIEICEGSNLSAVVFSDKIKTLDGVKDYIAQGCVPGGTGRNFDSYGHKVGILTEEQKAILCDPQTSGGLLVAVELNSVQTVIDIAKDAGIDLYEVGKLKPKSESDIVVEVKEGHHHHHH", "values": [
      {"measurement": "soluble on expression in E. coli", "result": "soluble"}
    ]},
    {"sequence": "QNPSIYCAGHGIYWVAYDMGTALSTGPVKVEAETSGDIDGRIYGIVLAAVYEDKEGQDTRYWVEEGNINLHDKGRSEEASSTHDEAYADFSGKVDVDRYKTANLAAVYLCGSPGLGDSLYFNDEQLSDGENSNDIANSKSYFDLKFFDVLDFLAEDDNELRFQRDDEDYLHPVFAALSLGTEEEGSSDLIVSGVTLPVLYAGQENIIKANIKNIGRDSAYGFQAALYADNEIVSTASVSSLSSGKSKTIDFNWKPGRSGEHVLKVSVDYTNRKKELCEINNWNIPFLANIIDLTPPEIEIDSPLDGSSVSSGYLKVSGTVEDTSRNTTVDVNGQKALLADKRWSADIPVAPGPNKIVVSAVDGTNNTGKEFILVTGISSGSGNNESFVSGGEREHVNRKVNAEPVSSTIPVYRSDI", "values": [
      {"measurement": "soluble on expression in E. coli", "result": "not soluble"}
    ]},
    {"sequence": "MSLNKIIHHYEVFKDFYGMEEPIEQIVGFLKHAAQGLEETKQVLYLLGPVGGGKSSIAEKLKDLMERIPFYAIKGSPVFESPLSLFNPLEDGELLRERFGIPTRYLRYLMSPWAVKRLQEYNGDISKFRVIKVKPSRLKQIAIAKTEPGDENNQDISSLVGKVDIRKLEEFSQDDPDAYSYSGGLCRANRGLLEFVEMFKAPIKVLHPLLTATQEGNYNATEGLSAIPFEGIILAHSNESEWQSFRNNKNNEAFIDRINIVKVPYCLRVSEEIKIYQKLIHNSSLANAPCAPGTLDMLAQFSVLTRLKEPQNSSIYSKMRVYNGESLKDTDPKAKSYQEYRDFAGVDEGMSGISTRFAFKILSKVFNFDHTEVAANPVHLMYVLERQIEQEQFPQELHETYLNFIKEYLATKYVDFIGKEIQTAYLESYSEYGQNIFDRYITYADFWIQDQDYRDPDTGEIFDRALLNLELEKIEKPAGISNPKDFRNEVVNFVLRARANNRGKNPVWNSYEKLKSVIEKKMFTNTEDLLPVISFNAKASEEDKKKHEEFISRMVEKGYTRKQVRLLCEWYLRVRKSQEGHHHHHH", "values": [
      {"measurement": "soluble on expression in E. coli", "result": "not soluble"}
    ]},
    {"sequence": "MASINWSEISTVLIDMDGTILDLHFDNHFWLEHLPARYSEKMSISLDAAKAKLKADYLSVVGTIKWYCLDYWAEQTQMPITELKREIQHLIQLRTDARDFLIALKASGRDVVLVTNAHPESLSLKIERTQLDQYFDVLYSTHDFGVTKESQLLWQRLQEKHGFDCDSTLFIDDSIEILQSAQQYGIKHLLAVANPDSKKTANVITDFPAITSFDLLTAQLSKELINSTSN", "values": [
      {"measurement": "soluble on expression in E. coli", "result": "not soluble"}
    ]},
    {"sequence": "MAKKKIVAVIQARMGSSRLPGKVLMTVAGKPLLEHIIDRLRRSRTLDDIVIATSDKPCDDPLVDFAQTRGVTLVRGSEDNVLLRFNKAAEEVDADVIIRVTGDAPLVDPEVMDRLVRTLLQEGAEYCTIEAGINSIHEGFCTFTRGALKRLMTEAPDDPVAIEHVTAYFIAHPDKFHIARIPVGNEHRFKGARLSVDTPADVQFFDELYRLLGVPAGDADIADVVRLLRNNPHLLQINQHVYQKKATDRSHKVLIRCDGDSRTGLGHVVRCLALAGELREKQGCGIIFAMASGEPGMKMVRQADFPLERQEDADEGEWMDGLISRHHPDVLILDIRNDLPVEKVDSWREDGILVVGIDDPTPRRLAADLLFYPPIPQISELNWNNFNGEICSGWEWVLLRKQFCAPCPPRNNNPPALLLTMGGSDPANFTVRVLRVLDELQNDFETIVVIGAGFVHEEDLQQFLSQARRHYRIEREVSDMASLMRQADLAIASFGVTAYELAASGVPAVYLCLTPDHARSASKFVDDRLAFSCGVLEECSNERIIESTLSLLDSRELRHEVGRRACATVDGYGATRIATKIVEKLERMHSSHGLEHHHHHH", "values": [
      {"measurement": "soluble on expression in E. coli", "result": "not soluble"}
    ]},
    {"sequence": "MEANTSSSGTVTGQRFAERRRSLPPGAELRQRLLKQLKELCDQIGKAYSTLVQKAALVIEPADQAVSLEPDTQRQATCITNLSDEGELWTTVYELNLGVQNLLMFIEDIRLLLLTQAQVPGPSVEENGLKTAGKGGCSPTELEGARFSDRLSSSNTHRFLEQLWDRYTP", "values": [
      {"measurement": "soluble on expression in E. coli", "result": "soluble"}
    ]},
    {"sequence": "SLSFASETKKELTNLEVKDCCINAELSALIRMNGALSFTNRHLVLDVQTENAAIARRIYTLLKKQYDVSVELLVRKKMRLKKNNVYIVRFSENAKAILEDLKILGENFVFERSISKELVKKRCCKRSYMRGAFLAGGSVNNPETSSYHLEIFSLYKEHNDSLCDLLNEFQLNSKTLERKKGYITYLKEAEKITEFLNVIGAHNSLLRFEDVRIVRDMRNSVNRLVNCETANLNKTIGASLRQVENIKYIDERIGLEALPEKLREIAQLRIDYQEVTLKELGEMVASGKISKSGINHRLRKLDEIAEQLRTGQTVTLK", "values": [
      {"measurement": "soluble on expression in E. coli", "result": "soluble"}
    ]},
    {"sequence": "MAHHHHHHMSDAPHRQSSTPASSFLPPEPLCVADILSELLPFLLAAPQPRDGCPPSSSAQEPAESPVLLIPPTVASEHRVQVSIRGRRYETALEVALTYSLFFFVFFHWPFSEEDESSDAAGCASDVAHVKRAPRSVGDAVMAAASARDLPKEAHLLRHYTRVVEPVLRVFLDHWAAPLDAAAAAQGEGESAARAETAEAGDAARLPLLPPLPHPVRIAYDASTRVWKFEFAARLTAGAAAEARSGRQCDDSSAAVSLAAADGCAAVATDKLNNSPFLLLQSEYMGLLLVFLRRCAKVRAERRAAGEGAAACALAPYPSLPIRWEEMNYDEQLSVVQLIRRFGVVSLARTYTRPTAPETTSLYIGEEAAAATARVKVEGDACSLRARASESMGKQQQKIQQAASVAVDTAEVVKKERCINEDDFDGLVLSAKGCARCGMAEHSTEECHF", "values": [
      {"measurement": "soluble on expression in E. coli", "result": "soluble"}
    ]},
    {"sequence": "MAEPLFDMSATGRPRILILGGTTEARQLAERLVSEPHYDTAISLAGRTADPRPQPLPTRTGGFGGAEGLAVFLRERNIALLIDATHPFAARISLNAAAAAKMTGTPLLALRRPAWAAEPGDRWTCVGSVAEAVPALGEAPRRVFLAIGRQEAFHFERAPQHSYVVRSVDPVMPPLDLPDVTAILASGPFAQADETELLERHGIDVIVAKNSGGAATYGKIAAARQLGIEVVMVERHKPADVQSVGDCDEALERIRQWLSPVKDRGV", "values": [
      {"measurement": "soluble on expression in E. coli", "result": "not soluble"}
    ]},
    {"sequence": "MTRLSSGAKLNHPESSVCSPVYSWSTCIRKTSPVLFSSTIFALRRMTAPSAPCAQAPQLTRRWAKIVVENRTGSHFKIQVLHEYTGEQTNDSGYIDFKPDDRITVFEKIYYNTGFFTTGVDNWKVHGTKLIQVETEGTIARNIFGKFFVDGLPYSTGHGAFAKWKKHTLRADDDGQETVIKVFQTEVQFISPSGRSVTTFNTLGENILPFSQNPQKQ", "values": [
      {"measurement": "soluble on expression in E. coli", "result": "not soluble"}
    ]},
    {"sequence": "MGSDKIHHHHHHMTDITVAETSAPDTIKAFEERLMQVSDTLPKRLKQCADYVGANKDRIAVSTVAEMAEGAGVQPSAFMRFCQIFGFSGFSEMQKLFRDSLVGGWPDYSTRLHHLRETASGSPSALLAEFVEAGRVSLEGLLQTVDPQLLEQAVACLSTAGMIHIVGLRRSFPVASYIAYAFEKMAVPAMLHSGVGKLESQHAIRDGDVVLAITFAPYSTETLDLVEQVSARGISVVAITDTVVNPLRKLGTITLSVAEVDFGAFRSLSATLCLAIALSVAVGTARQQD", "values": [
      {"measurement": "soluble on expression in E. coli", "result": "not soluble"}
    ]},
    {"sequence": "GPGSMPPSQTVEYEEDFGHNLMIHREYISKRCRDRVSFELSALSYSNLELRRGQEHLAGIMNRERRGVSVGASGAPDDQVQMQTDVDANSREVLSARYLFNERRLQFCDRFQNFFQSKLENSAASDSNGHEKQHLFSLMEACAVIFGCETEAARETYYRMFLGLDSETLLEEDEALRNRIADAKLVQRVLENNKGRQEVTQSPKLQQQQDQGKPLHAVSSGTSLLNDCEEERFISSIPELSLFEDETEARANGFVEGEDDVKANNGDLTAGSFSSPASSVNLPEEFEEYAPLYKAYITHAVGKGPVASYDISTLGSTGLTAERRRWRTLMEKIVREDYHTMTEVEQMDAIVLNEQLHTVKFFDLKIGDAIRDILQLLQRETGVGSSVNRDTPVGISPNNPERRV", "values": [
      {"measurement": "soluble on expression in E. coli", "result": "not soluble"}
    ]}
  ]
}
